One data set relates to allogeneic grafts. The experiment in a line: Graft survival with B4-Crry and subtherapeutic tacrolimus. The format is in vivo. As to the method: FIG. 6 depicts the results of example experiments depicting the survival curve from B4-Crry and subtherapeutic tacrolimus.
Experiments were conducted to examine the effects of B4-Crry in combination with sub-therapeutic tacrolimus (also known as FK506). Tacrolimus was given at 1 mg/kg/day. […] Thus, untreated allogeneic grafts reject at the same extent as the subtherapeutic Tacrolimus treated animals. B4-Crry was given at 0 and 24 hours post-transplant and Tacrolimus was given at 1 mg/kg/day for the duration of the experiment (until full rejection of the graft).

Data set [1] has as its target T1, annexin IV in post-ischemic mouse tissue (transplanted heart, brain-dead donor cardiac grafts, liver) (mouse, UniProt P97429 1-319, limits assumed).
T1 construct: The target was whole grafts or tissue
T1 sequence (looked up): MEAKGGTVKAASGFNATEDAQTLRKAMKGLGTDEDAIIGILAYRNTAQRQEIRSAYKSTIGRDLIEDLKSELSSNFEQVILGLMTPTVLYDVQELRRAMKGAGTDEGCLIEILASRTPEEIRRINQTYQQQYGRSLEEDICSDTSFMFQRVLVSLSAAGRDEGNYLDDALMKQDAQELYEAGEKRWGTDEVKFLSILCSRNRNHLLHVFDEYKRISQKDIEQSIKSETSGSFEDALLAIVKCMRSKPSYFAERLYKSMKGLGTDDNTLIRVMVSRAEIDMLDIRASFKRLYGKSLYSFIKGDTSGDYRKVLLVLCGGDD
The data set is described as follows: perfusion of radiolabeled (125I) B4scFv-Crry through cardiac grafts of brain-dead or living donors, counted after flush. As to the method:
FIG. 5 depicts the Binding of ¹²⁵I-B4-Crry after perfusion of grafts of BD (3 hours) or living donors. […] After 5 minutes, flush with 0.5 ml PBS, weigh and count.
In this experiment, B4scFv-Crry was administered to the donor hearts as a constituent of the UW preservation solution. […] The donor heart was then isolated and perfused with 0.5 mL ice cold UW or I¹²⁵-B4scFv-Crry via the proximal aortic arch.

A further data set deals with transplanted heart. The experiment in a line: Cardiac allograft transplant model (B4scFv targeting strategy). The format is in vivo, mice. Here is the method: (§1) A therapeutic strategy that exploited this post-ischemia recognition system of natural antibodies was then developed and characterized. Based on neoepitope identification, an anti-annexin-IV single chain antibody (B4scFv) and an scFv linked to Crry (B4scFv-Crry) was constructed. […] Further, post-ischemic expression of the B4scFv neoepitope has been observed in multiple tissues/organs in both mouse and humans. […] Liver biopsies were obtained from human donor livers following Tx and 1 hour reperfusion. […] Similar data was obtained with normal and ischemic brain samples obtained from stroke patients. Finally, it is shown herein that a decrease in anti-annexin IV Abs in human serum 24 hours after cardiac Tx as compared to pre-Tx levels (note that levels were not decreased in 2 patients, which is likely due to transfusion volume) (Table 1). […] In certain aspects, there may be benefits of a neoepitope vs. C3d targeting approach for protection against IRI in a transplant. […] Second, the targeting vehicle itself contributes to therapeutic activity by blocking the binding of complement activating pathogenic IgM, which in turn reduces the binding of Clq and MBL, which can impact inflammation, endothelial activation, cell trafficking, and Ag-presentation. Third, it is likely less immunosuppressive since not all sites of infection and C3 deposition will be targeted with complement inhibition.

Another data set concerns VC isografts. The data set is described as follows: Ischemia reperfusion injury of VC isografts, histology scoring of skin and muscle. Type of data set: in vivo. The settings on record: VC isografts in treated wild type mice. As to the method: Experiments were conducted to evaluate the effects of antibody-targeted complement inhibition on acute graft injury. VC isografts were transplanted into Rag −/− mice or wildtype mice. Mice were treated with PBS, B4 IgM mAb or B4-Crry. Isolated VCAs were stained and scored using a histology scoring system.

A further data set deals with T2, annexin IV (Homo sapiens, UniProt P09525).
T2 construct: Liver biopsies were obtained from human donor livers following Tx and 1 hour reperfusion; from tissue; host or cells: human donor liver biopsies after transplantation and 1 hour reperfusion
T2 sequence (P09525 2-319 limits assumed): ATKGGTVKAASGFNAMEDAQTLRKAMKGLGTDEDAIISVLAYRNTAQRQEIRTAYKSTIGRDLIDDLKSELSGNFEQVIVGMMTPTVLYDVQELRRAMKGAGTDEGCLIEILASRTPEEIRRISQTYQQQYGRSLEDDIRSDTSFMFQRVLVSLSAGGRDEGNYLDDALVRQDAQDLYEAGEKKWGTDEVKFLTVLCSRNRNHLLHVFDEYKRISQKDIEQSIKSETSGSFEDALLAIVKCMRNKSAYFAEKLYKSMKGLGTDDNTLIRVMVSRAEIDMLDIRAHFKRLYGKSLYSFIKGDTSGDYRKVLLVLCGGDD
The experiment in a line: Immunohistochemistry of human donor liver biopsies following Tx and 1 hour reperfusion. The format is binding. Here is the method: as §1

The subject of data set [2] is post-ischemic human brain. The experiment in a line: Binding to normal and ischemic brain samples from stroke patients. Here is the method:
as §1

Where [3] appears, read: allograft transplant model, recipients with full natural antibody repertoire.

For `C=CC[C@@H]1/C=C(\C)C[C@H](C)C[C@H](OC)[C@H]2O[C@@](O)(C(=O)C(=O)N3CCCC[C@H]3C(=O)O[C@H](/C(C)=C/[C@@H]3CC[C@@H](O)[C@H](OC)C3)[C@H](C)[C@@H](O)CC1=O)[C@H](C)C[C@@H]2OC` [Tacrolimus, reference compound], in the data set on allogeneic grafts (tacrolimus alone, 1 mg/kg/day (subtherapeutic)), the graft survival entry is reported as “does not prolong survival”.

B1: B4scFv-Crry (scFv)
chain: VKLQESGPELVKPGASVKISCKASGYTFTDYYMNWVKQSHGKSLEWIGDINPNNGGTSYNQKFKGKATLTVDKSSSTAYMELRSLTSEDSAVYYCARYDYAWYFDVWGQGTTVTVSSGGGGSGGGGSGGGGDVLMTQTPLSLPVSLGDQASISCRSSQSIVHSNGNTYLEWYLQKPGQSPKLLIYKVSNRFSGVPDRFSGSGSGTDFTLKISRVEAEDLGVYYCFQGSHVPYTFGGGTKLEIKRGGGGSGGGGSCPAPSQLPSAKPINLTDESMFPIGTYLLYECLPGYIKRQFSITCKQDSTWTSAEDKCIRKQCKTPSDPENGLVHVHTGIQFGSRINYTCNQGYRLIGSSSAVCVITDQSVDWDTEAPICEWIPCEIPPGIPNGDFFSSTREDFHYGMVVTYRCNTDARGKALFNLVGEPSLYCTSNDGEIGVWSGPPPQCIELNKCTPPPYVENAVMLSENRSLFSLRDIVEFRCHPGFIMKGASSVHCQSLNKWEPELPSCFKGVICRLPQEMSGFQKGLGMKKEYYYGENVTLECEDGYTLEGSSQSQCQSDGSWNPLLAKCVSRSIIEGRHHHHHH
modifications: 125I radiolabel in the graft perfusion experiment (position not given)
notes: also called B4-Crry; B4Crry
As to B1, in data set [1], the “fold higher binding in BD vs. living donor grafts” value was 7 fold.

B2: B4scFv-Crry: anti-annexin-IV single chain antibody (B4scFv) linked to Crry; B4Crry amino acid sequence SEQ ID NO: 62 (protein)
chain: MSVPTQVLGLLLLWLTDARCVKLQESGPELVKPGASVKISCKASGYTFTDYYMNWVKQSHGKSLEWIGDINPNNGGTSYNQKFKGKATLTVDKSSSTAYMELRSLTSEDSAVYYCARYDYAWYFDVWGQGTTVTVSSGGGGSGGGGSGGGGDVLMTQTPLSLPVSLGDQASISCRSSQSIVHSNGNTYLEWYLQKPGQSPKLLIYKVSNRFSGVPDRFSGSGSGTDFTLKISRVEAEDLGVYYCFQGSHVPYTFGGGTKLEIKRGGGGSGGGGSCPAPSQLPSAKPINLTDESMFPIGTYLLYECLPGYIKRQFSITCKQDSTWTSAEDKCIRKQCKTPSDPENGLVHVHTGIQFGSRINYTCNQGYRLIGSSSAVCVITDQSVDWDTEAPICEWIPCEIPPGIPNGDFFSSTREDFHYGMVVTYRCNTDARGKALFNLVGEPSLYCTSNDGEIGVWSGPPPQCIELNKCTPPPYVENAVMLSENRSLFSLRDIVEFRCHPGFIMKGASSVHCQSLNKWEPELPSCFKGVICRLPQEMSGFQKGLGMKKEYYYGENVTLECEDGYTLEGSSQSQCQSDGSWNPLLAKCVSRSIIEGRHHHHHH
modifications: B4Crry amino acid sequence
On to B2, for which the graft survival result in the data set with allogeneic grafts (B4-Crry at 0 and 24 hours post-transplant combined with tacrolimus 1 mg/kg/day, vs. tacrolimus alone) is “significantly prolongs graft survival”. The “cardiac graft inflammation and injury” value in the data set with transplanted heart (allograft transplant model) is recorded as “significantly reduced”. Besides, in the data set with transplanted heart (setting [3]), the “complement activation in graft” value was “blocked” and the “graft IgM binding” value is “blocked”. Besides, the “targeting to the transplanted heart” value with transplanted heart (cardiac Tx model) is “specifically targeted to the transplanted heart”. Further, the immunity to infection result in the data set with transplanted heart (compared with complement deficiency) was “did not affect immunity to infection”. Besides, the “Ischemia reperfusion injury (skin and muscle histopathological score)” value with VC isografts is recorded as “protection from IRI”. Moreover, in the data set with annexin IV (human liver biopsies post-Tx), the “staining of biopsies obtained post-Tx” value is “stained biopsies obtained post-Tx”. In addition, the “staining of samples from normal biopsies” value with annexin IV (normal human liver biopsies) was “not samples from normal biopsies”. In addition, the “binding to post-ischemic human liver” value in the data set with annexin IV (post-ischemic human liver) was “directly bind”. Also, the “binding to post-ischemic human brain” value in data set [2] is reported as “directly bind”.

The values are drawn from patent US20250222127A1, “COMPOSITIONS AND METHODS FOR TREATING AND PREVENTING TRANSPLANT-ASSOCIATED INJURY” (MUSC Foundation For Research Development, priority 2016, published 2025).
